Experimental data as given in a protein production outcome set (Wang et al. 2014).

Assay: label from the status in PepcDB records

| Sequence | protein production |
| --- | --- |
| MNPTFHADKPIYSQISDWMKKQMITGEWKGEDKLPSVREMGVKLAVNPNTVSRAYQELERAGYIYAKRGMGSFVTSDKALFDQLKKELADAITERFLEEAKSIGLDDQTAIELLIKRSRNHE | not failed |
| MFTTTSFPDFDSAAQATLTYLHQRMGLSLWMITRTEVDNWIVLQAQDNGYGVKRGDVFHWPDSFCSRMVRGEGPHIAPQSNLVEAYRNAPIAQQVDIGAYVGVPITYGNGSLFGTLCAIDPEIQPDSLVDELPLVELIAQLLSTILDFFLKAEIASRREEYQQLLKERDGTTGFYSLSGWEKLLASEEIRCQKFGFPVSVIIVEVEAAEPKGEEPINDLILQRAAKIIKTVCRQDDFCARIGEREFAILCIECHISQADFIRERLALGFEQGKITADIGIGERSPEKGLLDAMETAKSAAHEQKKFRVKTEG | failed |
| SLDTEKDCIKAVAAKDGITVIKVKSSNKLLSWHFMRKLFEIFEFYQEPVDMVATSEVGVSLTIDNDKNLPDIVRALSDIGDVTVDKDMVIICIVGDMEWDNVGFEARIINALKGVPVRMISYGGSNYNVSVLVKAEDKKKALIALSNKLFNSRATKA | not failed |
| MRDPRLAPFRAPALAFAALLLVSAASGAVLFVLKLGTTAARVQEFYLGSEARFTAPRTLGGILEVAVPHLVAVPLVLFAVAHLVAFTRALRPRPYAALVRLSFGCALAGALAGLGIRFVAPWLAWVKIGAFVGLEAALLAWAALLVGLFLPDRAEAHARRAAAADGASPQRVPGAPRRD | failed |
| EPLKDAVLIEGLPGIGHVGRVAAEHIVEEFNGEKVLELYCDDFPPQIVVKNDGTIEYMKNEFYLVKEPVPMVIVLGNTQALSPKGQYVLSEKIVDIAMKYGATKTYTLGGFGIGKISDELKVYVASTSKELSEQHKELGAEFRTDGGSIIGAAGLMLKFSKLKGIEGICLMGETPGYLVDPKSAGNVLEMLSKAIGFEIDMKKLDERAKEMEKFIEKVQMQEQGMQAPQHQDDLSYIG | failed |
| RYSDAHLHYVDFFQESEGMPALIKAMDAAGVEQSMISGIPVAKKWHEDEPKRPRYYAGDDADAYWYSATDTYVAAALQQLPSDQRKRFHPFLSGFNPVDKNAVSHIERMLDLYPGLWQGIGEVFTRHDDLTALTSGDTPRANNEAMTRIYHLAAERDLPVLLHSNITSKRERNPLYLAEIEEPLRNHPHTRFIWAHAGSSMEIHRHQKQMDFLLPVLTRLLEDYPNLYVDLSWSVLQPYLLDEQGAPRKEWLALVEKYPERFMLGSDVVGRFGSLGEQMHGFKPFLDALPESVAHKVARENFLAVLPKAR | failed |
| MGAFFMSVVSAFAGAAEACRPTGALQNVEVARVVDGDTVRLRDGRSVRLIGINAPELAHNGRTTEPFAEAAKQRLQALVSASDGRLALQPGRQARDHYGRTLAHLFDASGANLEARLLGEGLGYLVAVAPNTELTACQQAAERAARSANLGVWKRSPVLSLDRLAQSGFAVVRGRVLEVERNRGGIWLEMDGPLVLRIEPKVLKAFDAKRVMQMAGRSLEVRGWVVDRSRRGAVPAGKARWQMSVTDPAMLEWLPLEHHHHHH | failed |
| MWNKLNKSMMFCQMMFGLSFYGVMVILTRFFLEELNYSEADTMMVVGAFSSIGPLFAIAGGFIADKFLGAYRSLTISYFGFATGYALLVLGSYTTNVPMALCGIALASYGRGLMSPSYPSLYKRTFDTQEHFENCYPVNYSVNNVGALLGQYLFPMFVLVLGFHGSFLLSCVLALLAFATLVIFRKPLLTVGAHIDQKPVSMQNWISFLITSVAMIALVFFMFSNMDIGQNIVYGIGLAAIGYFVILMLKSKKSDALKMGTILIMTALTTAFFVYYGQMMTSMTMVTINTMRGDLFDLIPIAPEASMAMNPLWCIVAGPVIAMIFSALEKRDIHFSTATKIGFAFILTAIAFGILTMAVMGVGEDAIIRPEVFLLIHFFQAFAEVIVGSLVVAFILSVAPKHIEGFSVSLFSVAMALSGIIGAVFSTSIAQEKGHVITQEFVQTVYGSYFQLLTVLAVVMVAIAFIASFIIRKMLESSKQAEEVELKEQKA | failed |
| MDLEINKGIGRNVEFKGLESQYLFIFCGGLLAVFVVFVILYMAGVNQWVCIGFGVAAATLLVWLTFRLNARYGTHGLMKAAARRRHPRYVVNRLKIPRLFTFKHWQE | failed |
| MIPDELKHYLTDDWYAVVREHKLLELPAKVTVQQISEQYLAHKKSVKSTSASKEVAINDVLDGIVEYFNVMLGSQLLYKFERTQYADVMQKHPDTPLSELYGSFHLLRLFVRLGSMLSYSALDQQSMQNLLTHVQDFLKFLVKNSSIFFSMSNFINVDPEYVRNAQ | failed |
| MTEQFVIIILLIALGYFLKRMNYLKATDSQVLSTLVLNVTLPSLVIVNLNSAKLDVSFSILPIMMIIYGIVAKIIVIWFFRKYDNHMRGSVGMMTGSMNIGLFAYPLVEAIWPSKGMIYFGMVDIGGAIIMFGITYFVGSYFSEGSDQFNFKFLGKKLVQSVPLVTYMIMFGLNMSHIHIWQPAIDFFSVLSKANMPLSMILLGVMLNFSIEREYLPVTIKYLCLHYGLGMLAGTLVHFLLPVSDDMIKTTLLITWLLPVGVAIIPYSIQFKYKTLPFVGMVTNLTIIISIIILYIYQAVFV | failed |
| MQKFIIHKGIACPLEYANIDTDQIIPKQFLLAVSKQGFGKHLFHDLRYLDDKESVLNMDFNLNKKEYQNSSILVSFENFGSGSSREHAPWALVDYGIRAIIAPSFADIFKNNALGNGLLTIELAKDEVLEIVDELKKSQDKNIEISLLEKRVFFKDKIFSFDLDDFHRICLLEGLDNIALTLKHEAQIKAYEKNSKSFLV | not failed |
| MDNGDWGYMMTDPVTLNVGGHLYTTSLTTLTRYPDSMLGAMFGGDFPTARDPQGNYFIDRDGPLFRYVLNFLRTSELTLPLDFKEFDLLRKEADFYQIEPLIQCLNDPKPLYPMDTFEEVVELSSTRKLSKYSNPVAVIITQLTITTKVHSLLEGISNYFTKWNKHMMDTRDCQVSFTFGPCDYHQEVSLRVHLMEYITKQGFTIRNTRVHHMSERANENTVEHNWTFCRLARKTDD | failed |
| MLAVGIVGLPNVGKSTLFNALTRANALAANYPFATIDKNVGVVPLEDERLYALQRTFAKGERVPPVVPTHVEFVDIAGLVKGAHKGEGLGNQFLAHIREVAAIAHVLRCFPDPDVVHVMGRVDPLEDAEVVETELLLADLATLERRLERLRKEARADRERLPLLEAAEGLYVHLQEGKPARTFPPSEAVARFLKETPLLTAKPVIYVANVAEEDLPDGRGNPQVEAVRRKALEEGAEVVVVSARLEAELAELSGEEARELLAAYGLQESGLQRLARAGYRALDLLTFFTAGEKEVRAWTVRRGTKAPRAAGEIHSDMERGFIRAEVIPWDKLVEAGGWARAKERGWVRLEGKDYEVQDGDVIYVLFNA | not failed |
| MKITLIIPTYNAGSIWPNVLDAIKQQTIYPDKLIVIDSGSKDETVLLASDLKNISIFNIDSKDFNHGGTRNLAVTKTLDADVIIFLTQDAILADSDAIKNLVYYFSDPLIAAVCGRQLPHKDANPLAVHARNFNYSSKSIVKSKADIEKFGIKTVFMSNSFAAYRRSVFEELSGFPEHTILAEDMFMAAKMIQAGYKVAYCAEAVVRHSHNYTPREEFQRYFDTGVFHACSPWIQRDLGGAGGEGFRFVKSEIQFLLKNAPFWIPRALLTTFAKFLGYKLGKHWQSLPLSTCRYFSMYKSYWNNIQYSSSKEIKLEHHHHHH | failed |
| PPNDNIPTPLEKEEKAKEASDNKEKTKETSNSAQNAQNTQASDKTSDNKSTAPKETIKHFTQQLKQEIQEYKPPMSRISMDLFPKELGKVEVIIQKVGKNLKVSVISHNNSLQTFLDNQQDLKNSLNALGFEGVDLSFSQDS | failed |
| MSYVLLLLGFALLIKGADFFVDGSSSIARLLNVSPLLIGLTIVAFGTSSPEATASIIAALNGNPDVALGNVIGSNMFNITLVVGLTALLSPLIVTNATLRKEIPFTLLASIALYIFINDQMIEGAVESTLSRSEGLILLLIFCVFLYYIFEVARTSPREQKIVQDFAIKPTWRKNIFLSILGLAMIIGGGELVIRHSTAIAFSHGMSETLVGLTIVAIGTSLPELVTSLTAALKKESEIALGNIVGSSIFNIFFVLGTAATITPMHVDSRVVVDLLLLIFLTLLLLVFSRTRYTVGKYEGLILASFYIGYMVYIIWRN | failed |
| MTLPRLILPLLIAAACALGGCAYNPDLGRDQLLIVNDNNLARDGEKAWADALRTSHVSKEPRKNARVQAVGQRVIVAAGLAGRPWEYAVFLEEAPNAFVLPGGYVGVTVGLLSLVENDDQLAAVIGHEAGHVVARHAAERVSQETTSKVLLGIAKAAAGGTEFGKLLKDHGEDATRYGLLLPFSRKQELEADKLGVDFMQRAGYRPREAVKLWRNMQALDGGKSGGDLGSTHPSDAVRIQELERYLASKGWLEHHHHHH | failed |
| AIQKQMLVPEVVVNKDGDWVTPVMKDEGSIQYFVVFRFINGNEIIEPKDKDYEKLGSFMRMFHEKTNGVLKSVPQTWRGYERPIYSEKKMIHEPLQCLLNTSFLSYEDKNKCLRIAERIQELTNSIQLREKQFVHGDMHFGNILVDKEDWYLLDFDECGFGYKEFDIGVPRLHLIASGQLEDAWGNFMMGYGENIS | failed |
| MFVAREHELQVLEKLFTSDSFEMVVLYGRRRVGKTALIDEFVKDKRVLYFTAIQQSAKMNLEDFSRAALSFFGMPDSTPSFGGWSDALSFVAERAAQTDERMVFVFDEFPYAAAAEPALPSMLQIAIDHGFLATKVTMILSGSNEGFMENDVLGRKSPLYGRRTAQIRLLPFDYADAAKFLTNTSPQELVQYYATFGGTPYYLARIQEADGFESNVLRLMFDNLGVLREEPMMLLRQELREPASYYSILQSIAGGNSSPKLIAEHAGVGSDSIGAYLKTLVDLRLIERKVPFGEDPSKSRKGMYVVSDPFFAYWFRFVGRNMSILDGNISEEVTSRLAFGPAFDTYVGQQFETICLQWLIRNNAMGNLPFVATQFGKWWGNDPIAHEQTDIDVIAADSLDKTILFGECKWRNSFNETEAIEKLHQRAGLVRGYQAGNAWLMLFTKNPVSESTRTRYMDDERMVFVSAEELYTALEHHHHHH | failed |
| MSAWFELKQYGSGACRFLLKTKEAQTMLQSDRYPCRDSAEAALGLFRAHCASPERYVKKISSGGKPFFKLKSGKEVILVSHLYDSEATLESAISAIASAGTTERVEHIQL | failed |
| MLDPFSEKAKELLKEFGSMNEFLQAIPSLVDIEEVMNRLKFAKESEISEDILNIEDIRDLASFYAQIGALAYSPYGLELELVKKANLRIYTERIRRRRKIRSDEIGIEVKIAVEFPENDIKTLEKVYGGLPEYIVSLREFLDLVPDEKLSSYYVYDGNVYLRKDDLLKVWSKAFERNVEKAVNIIYEIRDELPEFYRRLAGEIRSFAEKEFSDKFREVQAGELKHHLFPPCVKNALRGVPQGMRNYAITVLLTSFLSYARICPNPPRRNVKIRDCIKDMRVITEEILPIIIEAGNRCSPPLFEDQPNEIKNIWYHLGFGYTANPTLEDSGNSTWYFPPNCDKIKANAPQLCTPDKHCRYIRNPLTYYLRRLYLEEKRRAKHADEGSDKGGKERILQLEHHHHHH | failed |
| MSLSDDPMASIKLLNLERENSAIAQYQSNIANLKTTLSSQETHLDSVSESLKSMRDIVLWGANGSLTDQDRSGMITELKSYRDSIESSFNAQDEEGHFLFSGTKTDTAALNKSSGAYVVEGNSDVRVVTVAKGVTMDSNMTAQEILDIGGGKNVLNQIDALIAEFEKPSPNFQAEVDASLNAIDDTMANVLGAMTEIGGRHNNLDLMDGAHSENKLFVDKVSGDLSALDYGEGHHHHHH | not failed |
